{"source": "paper PMC2171992", "about": "(The Journal of Cell Biology, 2004)", "key": {"[1]": {"biological_target": "T1, muscle actin (UniProt P68135 1-377, labeled with pyrene)", "test": "seeded actin assembly kinetics"}, "[2]": {"biological_target": "T1, muscle actin", "test": "apparent critical concentration for actin polymerization at steady state"}, "[3]": {"biological_target": "T1, muscle actin", "test": "apparent critical concentration for actin polymerization at steady state", "remark": "listed apart in the source"}}, "data": [{"binder": "wild-type yeast capping protein (Cap1/Cap2) (complex) chain 1: MSSSKFEEVINKIINDSPPGELREVYDDLIKITSENSKNTILDAIENYNVQNCIPIEVNGNSVIISKYNKEGAKFFDPVNSVIFSVNHLERKGLDIEPYEFTHAKIEKGQLKELHDKLHEYLLQSFPGDVSFAVYPVPEEISKISIIIVSTKYNPNNFWNGHWRSSYIYDLETRELSGQISTQVHYYEDGNVSFQSGKDINQSNVDDVVCTIRDIETNFENDLDLSFFDLNEKQFKALRRRLPVTRSKINWGSAIGSYRLGKNAAEGK chain 2: MSDAQFDAALDLLRRLNPTTLQENLNNLIELQPNLAQDLLSSVDVPLSTQKDSADSNREYLCCDYNRDIDSFRSPWSNTYYPELSPKDLQDSPFPSAPLRKLEILANDSFDVYRDLYYEGGISSVYLWDLNEEDFNGHDFAGVVLFKKNQSDHSNWDSIHVFEVTTSPSSPDSFNYRVTTTIILHLDKTKTDQNSHMMLSGNLTRQTEKDIAIDMSRPLDVIFTSHVANLGSLIEDIESQMRNLLETVYFEKTRDIFHQTKNAAIASSAEEANKDAQAEVIRGLQSL", "values": [{"measurement": "Kd", "setting": "[1]", "value": 1.2, "unit": "nM"}, {"measurement": "koff", "setting": "[1]", "value": 0.00156, "unit": "s⁻¹"}, {"measurement": "kon", "setting": "[1]", "value": "1.16e+06", "unit": "M⁻¹ s⁻¹"}, {"measurement": "Kd", "setting": "[2]", "value": 4, "unit": "nM"}]}, {"binder": "Cap1 (R239A)/Cap2 (complex) chain 1: MSSSKFEEVINKIINDSPPGELREVYDDLIKITSENSKNTILDAIENYNVQNCIPIEVNGNSVIISKYNKEGAKFFDPVNSVIFSVNHLERKGLDIEPYEFTHAKIEKGQLKELHDKLHEYLLQSFPGDVSFAVYPVPEEISKISIIIVSTKYNPNNFWNGHWRSSYIYDLETRELSGQISTQVHYYEDGNVSFQSGKDINQSNVDDVVCTIRDIETNFENDLDLSFFDLNEKQFKALARRLPVTRSKINWGSAIGSYRLGKNAAEGK chain 2: MSDAQFDAALDLLRRLNPTTLQENLNNLIELQPNLAQDLLSSVDVPLSTQKDSADSNREYLCCDYNRDIDSFRSPWSNTYYPELSPKDLQDSPFPSAPLRKLEILANDSFDVYRDLYYEGGISSVYLWDLNEEDFNGHDFAGVVLFKKNQSDHSNWDSIHVFEVTTSPSSPDSFNYRVTTTIILHLDKTKTDQNSHMMLSGNLTRQTEKDIAIDMSRPLDVIFTSHVANLGSLIEDIESQMRNLLETVYFEKTRDIFHQTKNAAIASSAEEANKDAQAEVIRGLQSL", "values": [{"measurement": "Kd", "setting": "[1]", "value": 176, "unit": "nM"}, {"measurement": "koff", "setting": "[1]", "value": 0.0275, "unit": "s⁻¹"}, {"measurement": "kon", "setting": "[1]", "value": 156000, "unit": "M⁻¹ s⁻¹"}, {"measurement": "Kd", "setting": "[2]", "value": 400, "unit": "nM"}]}, {"binder": "Cap1 (W251A)/Cap2 (complex) chain 1: MSSSKFEEVINKIINDSPPGELREVYDDLIKITSENSKNTILDAIENYNVQNCIPIEVNGNSVIISKYNKEGAKFFDPVNSVIFSVNHLERKGLDIEPYEFTHAKIEKGQLKELHDKLHEYLLQSFPGDVSFAVYPVPEEISKISIIIVSTKYNPNNFWNGHWRSSYIYDLETRELSGQISTQVHYYEDGNVSFQSGKDINQSNVDDVVCTIRDIETNFENDLDLSFFDLNEKQFKALRRRLPVTRSKINAGSAIGSYRLGKNAAEGK chain 2: MSDAQFDAALDLLRRLNPTTLQENLNNLIELQPNLAQDLLSSVDVPLSTQKDSADSNREYLCCDYNRDIDSFRSPWSNTYYPELSPKDLQDSPFPSAPLRKLEILANDSFDVYRDLYYEGGISSVYLWDLNEEDFNGHDFAGVVLFKKNQSDHSNWDSIHVFEVTTSPSSPDSFNYRVTTTIILHLDKTKTDQNSHMMLSGNLTRQTEKDIAIDMSRPLDVIFTSHVANLGSLIEDIESQMRNLLETVYFEKTRDIFHQTKNAAIASSAEEANKDAQAEVIRGLQSL", "values": [{"measurement": "Kd", "setting": "[1]", "value": 91, "unit": "nM"}, {"measurement": "koff", "setting": "[1]", "value": 0.0259, "unit": "s⁻¹"}, {"measurement": "kon", "setting": "[1]", "value": 300000, "unit": "M⁻¹ s⁻¹"}, {"measurement": "Kd", "setting": "[2]", "value": 250, "unit": "nM"}]}, {"binder": "Cap1/Cap2Δ(261–287) (complex) chain 1: MSSSKFEEVINKIINDSPPGELREVYDDLIKITSENSKNTILDAIENYNVQNCIPIEVNGNSVIISKYNKEGAKFFDPVNSVIFSVNHLERKGLDIEPYEFTHAKIEKGQLKELHDKLHEYLLQSFPGDVSFAVYPVPEEISKISIIIVSTKYNPNNFWNGHWRSSYIYDLETRELSGQISTQVHYYEDGNVSFQSGKDINQSNVDDVVCTIRDIETNFENDLDLSFFDLNEKQFKALRRRLPVTRSKINWGSAIGSYRLGKNAAEGK chain 2: MSDAQFDAALDLLRRLNPTTLQENLNNLIELQPNLAQDLLSSVDVPLSTQKDSADSNREYLCCDYNRDIDSFRSPWSNTYYPELSPKDLQDSPFPSAPLRKLEILANDSFDVYRDLYYEGGISSVYLWDLNEEDFNGHDFAGVVLFKKNQSDHSNWDSIHVFEVTTSPSSPDSFNYRVTTTIILHLDKTKTDQNSHMMLSGNLTRQTEKDIAIDMSRPLDVIFTSHVANLGSLIEDIESQMRNLLETVYFEKTRDIFHQT", "values": [{"measurement": "Kd", "setting": "[1]", "value": 7.8, "unit": "nM"}, {"measurement": "koff", "setting": "[1]", "value": 0.0163, "unit": "s⁻¹"}, {"measurement": "kon", "setting": "[1]", "value": "2.09e+06", "unit": "M⁻¹ s⁻¹"}, {"measurement": "Kd", "setting": "[2]", "value": 25, "unit": "nM"}]}, {"binder": "Cap1/Cap2Δ(264–287) (complex) chain 1: MSSSKFEEVINKIINDSPPGELREVYDDLIKITSENSKNTILDAIENYNVQNCIPIEVNGNSVIISKYNKEGAKFFDPVNSVIFSVNHLERKGLDIEPYEFTHAKIEKGQLKELHDKLHEYLLQSFPGDVSFAVYPVPEEISKISIIIVSTKYNPNNFWNGHWRSSYIYDLETRELSGQISTQVHYYEDGNVSFQSGKDINQSNVDDVVCTIRDIETNFENDLDLSFFDLNEKQFKALRRRLPVTRSKINWGSAIGSYRLGKNAAEGK chain 2: MSDAQFDAALDLLRRLNPTTLQENLNNLIELQPNLAQDLLSSVDVPLSTQKDSADSNREYLCCDYNRDIDSFRSPWSNTYYPELSPKDLQDSPFPSAPLRKLEILANDSFDVYRDLYYEGGISSVYLWDLNEEDFNGHDFAGVVLFKKNQSDHSNWDSIHVFEVTTSPSSPDSFNYRVTTTIILHLDKTKTDQNSHMMLSGNLTRQTEKDIAIDMSRPLDVIFTSHVANLGSLIEDIESQMRNLLETVYFEKTRDIFHQTKNA", "values": [{"measurement": "Kd", "setting": "[1]", "value": 8, "unit": "nM"}, {"measurement": "koff", "setting": "[1]", "value": 0.017, "unit": "s⁻¹"}, {"measurement": "kon", "setting": "[1]", "value": "2.1e+06", "unit": "M⁻¹ s⁻¹"}, {"measurement": "Kd", "setting": "[2]", "value": 25, "unit": "nM"}]}, {"binder": "Cap1Δ(239–268)/Cap2Δ(264–287) (complex) chain 1: MSSSKFEEVINKIINDSPPGELREVYDDLIKITSENSKNTILDAIENYNVQNCIPIEVNGNSVIISKYNKEGAKFFDPVNSVIFSVNHLERKGLDIEPYEFTHAKIEKGQLKELHDKLHEYLLQSFPGDVSFAVYPVPEEISKISIIIVSTKYNPNNFWNGHWRSSYIYDLETRELSGQISTQVHYYEDGNVSFQSGKDINQSNVDDVVCTIRDIETNFENDLDLSFFDLNEKQFKAL chain 2: MSDAQFDAALDLLRRLNPTTLQENLNNLIELQPNLAQDLLSSVDVPLSTQKDSADSNREYLCCDYNRDIDSFRSPWSNTYYPELSPKDLQDSPFPSAPLRKLEILANDSFDVYRDLYYEGGISSVYLWDLNEEDFNGHDFAGVVLFKKNQSDHSNWDSIHVFEVTTSPSSPDSFNYRVTTTIILHLDKTKTDQNSHMMLSGNLTRQTEKDIAIDMSRPLDVIFTSHVANLGSLIEDIESQMRNLLETVYFEKTRDIFHQTKNA", "values": [{"measurement": "Kd", "setting": "[1]", "value": 33400, "unit": "nM"}, {"measurement": "koff", "setting": "[1]", "value": 0.012, "unit": "s⁻¹"}, {"measurement": "kon", "setting": "[1]", "value": 370, "unit": "M⁻¹ s⁻¹"}]}, {"binder": "Cap1(Δ239–268)/Cap2(Δ261–287) (complex) chain 1: MSSSKFEEVINKIINDSPPGELREVYDDLIKITSENSKNTILDAIENYNVQNCIPIEVNGNSVIISKYNKEGAKFFDPVNSVIFSVNHLERKGLDIEPYEFTHAKIEKGQLKELHDKLHEYLLQSFPGDVSFAVYPVPEEISKISIIIVSTKYNPNNFWNGHWRSSYIYDLETRELSGQISTQVHYYEDGNVSFQSGKDINQSNVDDVVCTIRDIETNFENDLDLSFFDLNEKQFKAL chain 2: MSDAQFDAALDLLRRLNPTTLQENLNNLIELQPNLAQDLLSSVDVPLSTQKDSADSNREYLCCDYNRDIDSFRSPWSNTYYPELSPKDLQDSPFPSAPLRKLEILANDSFDVYRDLYYEGGISSVYLWDLNEEDFNGHDFAGVVLFKKNQSDHSNWDSIHVFEVTTSPSSPDSFNYRVTTTIILHLDKTKTDQNSHMMLSGNLTRQTEKDIAIDMSRPLDVIFTSHVANLGSLIEDIESQMRNLLETVYFEKTRDIFHQT", "values": [{"measurement": "Kd", "setting": "[3]", "value": "≥ 100000", "unit": "nM"}]}]}
